We go through 30 sequences from the nanobody polyreactivity screen of Harvey et al. (2022).

This series in a line: yeast display, Sf9 membrane polyspecificity reagent, FACS + sequencing; frameworks hold sequencing errors. The essentials:
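Nanobodies from a synthetic yeast display library (Saccharomyces cerevisiae BJ5465), induced 36–48 hours with galactose, were stained 1 hour at 4 °C with 10% biotinylated, detergent-solubilized Sf9 membrane reagent, enriched on streptavidin microbeads, then FACS-sorted. Anti-HA (expression) and streptavidin (reagent binding) fluorescence set low and high (top ~1%) gates. Polyreactivity labels come from the gate of origin. Genes were colony-PCR amplified, MiSeq 2 × 250 sequenced and filtered by CDR length.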
As to “QVQLVESGGGLVQAGGSLRFSCAASGSIFITYAMGWYRQAPGKERELVAAISRSGGSTYYADSVKGRFTISRDNAKNTVYLQMNSLKPEDTAVYYCAAYPYSAGRYYYWGQGTQVTVSS”, the “polyreactivity (PSR sort gate)” value is “high polyreactivity”.

Turning to “QVQLVESGGGLVQAGGSLRFSCAASGSIFSSYAMGWYRQAPGKERELVAAISSSGDSTYADSVKGRFTISRDNAKNTVYLQMNSLKPEDTAVYYCAVGGAGSDDYWGQGTQVTVSS”, the “polyreactivity (PSR sort gate)” value is “low polyreactivity”.

On to “QVQLVESGGGLVQAGGSLRFSCAASGSIFYRNAMGWDRQAPGKEREMVAAISASSGRTYYADSVKGRFTISRDNAKNTVYLQMNSLKPEDTAVYYCAVRPYRSAGGSVTRGAYYYWGQGTQVTVSS”, for which the “polyreactivity (PSR sort gate)” value was “high polyreactivity”.

Consider “QVQLVESGGGLVQAGGSLRFSCAASGSTFAYNDMGWYRQAPGKERELVADIRSGGNTNYADSVKGRFTISRDNAKNTVYFQMNSLKPEDTAVYYCATDGYRIDVYHPDYRYDYWGQGTQVTVSS”, for which the “polyreactivity (PSR sort gate)” value is “low polyreactivity”.

As for “QVQLVESGGGLVQAGGSLRFSCAASGSTFGYYAMGWYRQAPGKEREMVAVITYSGGSTYYADSVKGRFTISRDNAKNTVYLQMNSLKPEDTAVYYCATDNYDWSSWAFRGYWYDYWGQGTQVTVSS”, the “polyreactivity (PSR sort gate)” value was “low polyreactivity”.

Turning to “QVQLVESGGGLVQAGGSLRFSCAASGSTFPSYAMGWYRQAPGKERELVAAITNGGSTTYADSVKGRFTISRDNAKITDYLQMNSLKPEDTAVYYCAARYYYYYYIRRDYWGQGTQVTVSS”, the “polyreactivity (PSR sort gate)” value was “low polyreactivity”.

In the case of “QVQLVESGGGLVQAGGSLRFSCAASGSTIPPNAMGWYRQAPGKERELVAAINSTGSTNYADSVKGRFTISRDNAKNTVSLQMNSLQPEDTAVYYCAAEGLPYVRVFDFVSRYDYWGQGTQVTVSS”, the “polyreactivity (PSR sort gate)” value is “low polyreactivity”.

As for “QVQLVESGGGLVQAGGSLRFSCAASGTFVPYAMGWYRQAPGKEMELVARITWRGGSTYYADSVKGRFTISRDNAKNTVDLQLNSLKPEDTAVYYCATVSDNRYYYWGQGTQVTVSS”, the “polyreactivity (PSR sort gate)” value was “low polyreactivity”.

Consider “QVQLVESGGGLVQAGGSLRFSCAASRFNFYDYVMGWYRQAPGKYRELVAAISSNGGSTYYADSVKGRFTISRDNAKNTVYFQMYSLKPEDTAVYYCAVTENSKSNKIRPDQGDYWGQGTQVTVSS”, for which the “polyreactivity (PSR sort gate)” value was “high polyreactivity”.

As for “QVQLVESGGGLVQAGGSLRFSCPASGSILTGYAMGWYRQAPGKERELVAAINFSGDNTYYADSVKGRFTISRDNAKNTVFLPMNSLKPEDTAVYYCNADGRYAYVWYDYCGQGTQVTVSS”, the “polyreactivity (PSR sort gate)” value is on record as “low polyreactivity”.

For the sequence “QVQLVESGGGLVQAGGSLRIICAASGFIFKYYAMGWYRQAPGKERELVAAISSGGSTKYADSVKGRFTISRDNAKNTVYLQMNSLIPEDTAVYYCNADWYWKYDYWGQGTQVTVSS”, the “polyreactivity (PSR sort gate)” value is “high polyreactivity”.

For “QVQLVESGGGLVQAGGSLRIICAASGRIFSNYAMGWYRQAPGKERELVAAITYSTSRTYYADSVKGRFTISRDNAKNTVYLHMNSLKPEDTAVDYCAAGRGPYYRSRTPLYYWGQGTQVTVSS”, the “polyreactivity (PSR sort gate)” value is on record as “high polyreactivity”.

As for “QVQLVESGGGLVQAGGSLRIISAASGSTFRWYDMGWYRQAPGKEMELVAAITGSGGATYYADSVKGRFTIARDYAKNTVYLQKNRLKPEDTAVYYCAAVWWVPLAYDDYDYWGQGTQVTVSS”, the “polyreactivity (PSR sort gate)” value was “high polyreactivity”.

“QVQLVESGGGLVQAGGSLRISCAASGFIFGGYAMGWYRQAPGKERELVAAISYSGGSTYYADSVKGRFTISRDNAKNTVYLQMNSLKPEDTAVYYCAVGYPYRYDYWGQGTQVTVSS”: the “polyreactivity (PSR sort gate)” value is listed as “high polyreactivity”.

For the sequence “QVQLVESGGGLVQAGGSLRISCAASGFIFGPNAMGWYRQAPGKERELVAAITYSGGSTYYADSVKGRFTISRDNAKNTVYLQMNSLKPEDTAVYYCAADLYTLRYGYRYEYWGQGTQVTVSS”, the “polyreactivity (PSR sort gate)” value is on record as “high polyreactivity”.

On to “QVQLVESGGGLVQAGGSLRISCAASGFIFRSYAMGWYRQAPGKERELVAAISRSGGSTYYADSVKGRFTISRDNAKNTVYLQMNSLKPEDTAVYYCATDGGRSTARGYGHWGQGTQVTVSS”, for which the “polyreactivity (PSR sort gate)” value was “high polyreactivity”.

Consider “QVQLVESGGGLVQAGGSLRISCAASGFIIFEYDMGWYRQAPGKERDFVAAINFSGGSTYYADSEKGRFTISRDNAKNTVYLQMNSLKPEDTAVYYCAADVVRYYYTYDYWGQGTQVTVSS”, for which the “polyreactivity (PSR sort gate)” value is listed as “low polyreactivity”.

“QVQLVESGGGLVQAGGSLRISCAASGFILKDNAMGWYRQAPGKERELFAAISSGGGTYYADSEKGRFTITRDNAKNTVYLQMNSLNPEDTAVYYCNGDDLYSLNDSSEDYWGQGSQVTVSS”: the “polyreactivity (PSR sort gate)” value is reported as “high polyreactivity”.

For the sequence “QVQLVESGGGLVQAGGSLRISCAASGFILTGYTMGWYRQAPGKERELVAAISWSGARTYYADSVKGRFTISRDNAMNTVYLQMNSLKPEDTAVYYCARDYYRPTQRYDYWGQGTQVTVSS”, the “polyreactivity (PSR sort gate)” value is reported as “high polyreactivity”.

Consider “QVQLVESGGGLVQAGGSLRISCAASGFTFEDNTMGWYRQAPGKERELVAAITWGGVSTYYADSVKGRFTISRDNAKNTVYLQMNSLKPEDTAVYYCARDYDVYTVFLMDYWGQGTQVNVSS”, for which the “polyreactivity (PSR sort gate)” value is listed as “low polyreactivity”.

Consider “QVQLVESGGGLVQAGGSLRISCAASGFTFGPYAMGWYRQAPGKERELVAAISQSGGRTSYADSVKGRFTISRDNAKNTVYLQMNSLKPEDTAVYYCAKRAYGYRSIYRMDYWGQGTQVTVSS”, for which the “polyreactivity (PSR sort gate)” value is reported as “high polyreactivity”.

With “QVQLVESGGGLVQAGGSLRISCAASGFTFQYYAMGWYRQAPGKERELVATITTSGGNTYYADSVKGRFTISRDNEKNTVYLQMNCLNPEDTAVYYCAARRYRASSRGYGYWGQGTQVTVSS”, the “polyreactivity (PSR sort gate)” value was “high polyreactivity”.

As to “QVQLVESGGGLVQAGGSLRISCAASGFTFSAYAMGRYRQAPGKERELVAAISWSGSRTYYADSVKGRFTISRDNAKNTVYLQMNSLKPEDTAVYYCAKEPYDTFGFYEYDYWGQGTQVNVSS”, the “polyreactivity (PSR sort gate)” value is “low polyreactivity”.

Turning to “QVQLVESGGGLVQAGGSLRISCAASGFTFSQYAMGRYRQAPGKERELVAAISVSGGTTYYADSVKGRFTISRDNAKNTVYLQMNSLKPEDTAVYYCDARTPFSSSPYVNTSGYYYWGQGSQVTVSS”, the “polyreactivity (PSR sort gate)” value is given as “high polyreactivity”.

Consider “QVQLVESGGGLVQAGGSLRISCAASGFTFSYYAMGWYRQAPGKERDLVAAISGRTGRTYYADSVKGRFTISRDNAKNTVYLQMNSLKPEDTAVYYCAAGYTFSRYDDDYWGQGTQVTVSW”, for which the “polyreactivity (PSR sort gate)” value is recorded as “low polyreactivity”.

“QVQLVESGGGLVQAGGSLRISCAASGFTLEPNTMGWYRQAPWKERELVAGISWSGGSTYYADSVKGRFTISRDNAKNTVYLQMNSLKPEDTAVYYCNAPPVRRSIVYDRRDYWGQGTQVTVSS”: the “polyreactivity (PSR sort gate)” value is “low polyreactivity”.

On to “QVQLVESGGGLVQAGGSLRISCAASGFTYSSYAMGWYRQATGKERELVAAISTRGGSTYYADSVKGRFTISRDNAKNTVYLQMNSLKPEDTAVYYCSTGGRGGRRYEYWGQGTQVTVSS”, for which the “polyreactivity (PSR sort gate)” value is “low polyreactivity”.

As to “QVQLVESGGGLVQAGGSLRISCAASGGIFNYYTMGWYRQAPGKERELVAAINSSGGNTHYADSVKGRFTISRDNAKNTVYLQMNSLKPEDTAVYYCNADARSVWFYRVDYWGQGTQVTVSS”, the “polyreactivity (PSR sort gate)” value is given as “low polyreactivity”.

As for “QVQLVESGGGLVQAGGSLRISCAASGGIFQRYDMGWYRKATGKERELVAAITRSGGSTYYADSVKGRFTISRDNAKNTVYLQMNSLKPEDTAVYYCAARTYGCYEYWGQGTQVTVSS”, the “polyreactivity (PSR sort gate)” value is “high polyreactivity”.

For “QVQLVESGGGLVQAGGSLRISCAASGGTFTNYAMGWYRQAPGKERELVAAITDSGATTYYADSVKGRFTISRDNAKNTVYLQMNSLKPEDTAVYYCNAELDLYTDFDYWGQGTQVTVSS”, the “polyreactivity (PSR sort gate)” value was “low polyreactivity”.
